This is an account of results in IntAct's records for PubMed 16488887.

Sequences and labels used below:
B1: Prospero homeobox protein 1 (Homo sapiens), Q92786 (parent)
chain: MPDHDSTALLSRQTKRRRVDIGVKRTVGTASAFFAKARATFFSAMNPQGSEQDVEYSVVQHADGEKSNVLRKLLKRANSYEDAMMPFPGATIISQLLKNNMNKNGGTEPSFQASGLSSTGSEVHQEDICSNSSRDSPPECLSPFGRPTMSQFDMDRLCDEHLRAKRARVENIIRGMSHSPSVALRGNENEREMAPQSVSPRESYRENKRKQKLPQQQQQSFQQLVSARKEQKREERRQLKQQLEDMQKQLRQLQEKFYQIYDSTDSENDEDGNLSEDSMRSEILDARAQDSVGRSDNEMCELDPGQFIDRARALIREQEMAENKPKREGNNKERDHGPNSLQPEGKHLAETLKQELNTAMSQVVDTVVKVFSAKPSRQVPQVFPPLQIPQARFAVNGENHNFHTANQRLQCFGDVIIPNPLDTFGNVQMASSTDQTEALPLVVRKNSSDQSASGPAAGGHHQPLHQSPLSATTGFTTSTFRHPFPLPLMAYPFQSPLGAPSGSFSGKDRASPESLDLTRDTTSLRTKMSSHHLSHHPCSPAHPPSTAEGLSLSLIKSECGDLQDMSEISPYSGSAMQEGLSPNHLKKAKLMFFYTRYPSSNMLKTYFSDVKFNRCITSQLIKWFSNFREFYYIQMEKYARQAINDGVTSTEELSITRDCELYRALNMHYNKANDFEVPERFLEVAQITLREFFNAIIAGKDVDPSWKKAIYKVICKLDSEVPEIFKSPNCLQELLHE
partner: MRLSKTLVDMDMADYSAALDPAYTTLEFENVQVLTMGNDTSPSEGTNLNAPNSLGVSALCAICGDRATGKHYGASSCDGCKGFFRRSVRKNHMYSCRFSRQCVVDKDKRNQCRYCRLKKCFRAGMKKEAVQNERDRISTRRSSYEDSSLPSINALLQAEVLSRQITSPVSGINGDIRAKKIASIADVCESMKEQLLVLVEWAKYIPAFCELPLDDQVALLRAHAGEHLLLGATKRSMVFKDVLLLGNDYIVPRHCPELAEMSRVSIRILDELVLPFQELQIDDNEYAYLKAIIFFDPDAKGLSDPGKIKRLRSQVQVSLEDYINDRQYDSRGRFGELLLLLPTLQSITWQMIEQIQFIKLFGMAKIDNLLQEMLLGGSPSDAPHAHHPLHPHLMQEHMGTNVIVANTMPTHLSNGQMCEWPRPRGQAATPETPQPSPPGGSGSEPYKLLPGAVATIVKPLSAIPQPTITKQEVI

This test covers variants of B1. Conditions: with hnf4a_human HNF4A.
For L70A;L73A, the “effect of a mutation on the interaction” value is on record as “disrupting interaction”.
